Experimental data published in patent publication US20140322196A1 (priority 2011, published 2014).
Like-named read-outs stand apart in the source and are kept apart here.

B1: bLf: Lactoferrin from bovine milk, purchased from Morinaga Milk Industries, deprived of endotoxin (protein, UniProt P24627 20-708, looked up)
Lactotransferrin: APRKNVRWCTISQPEWFKCRRWQWRMKKLGAPSITCVRRAFALECIRAIAEKKADAVTLDGGMVFEAGRDPYKLRPVAAEIYGTKESPQTHYYAVAVVKKGSNFQLDQLQGRKSCHTGLGRSAGWIIPMGILRPYLSWTESLEPLQGAVAKFFSASCVPCIDRQAYPNLCQLCKGEGENQCACSSREPYFGYSGAFKCLQDGAGDVAFVKETTVFENLPEKADRDQYELLCLNNSRAPVDAFKECHLAQVPSHAVVARSVDGKEDLIWKLLSKAQEKFGKNKSRSFQLFGSPPGQRDLLFKDSALGFLRIPSKVDSALYLGSRYLTTLKNLRETAEEVKARYTRVVWCAVGPEEQKKCQQWSQQSGQNVTCATASTTDDCIVLVLKGEADALNLDGGYIYTAGKCGLVPVLAENRKSSKHSSLDCVLRPTEGYLAVAVVKKANEGLTWNSLKDKKSCHTAVDRTAGWNIPMGLIVNQTGSCAFDEFFSQSCAPGADPKSRLCALCAGDDQGLDKCVPNSKEKYYGYTGAFRCLAEDVGDVAFVKNDTVWENTNGESTADWAKNLNREDFRLLCLDGTRKPVTEAQSCHLAVAPNHAVVSRSDRAAHVKQVLLHQQALFGKNGKNCPDKFCLFKSETKNLLFNDNTECLAKLGGRPTYEEYLGTEYVTAIANLKKCSTSPLLEACAFLTR
B2: C-lobe: bovine lactoferrin C-lobe as named in the text, without saying which of the two fragments of Table 2 (protein)
chain: YTRVVWCAVGPEEQKKCQQWSQQSGQNVTCATASTTDDCIVLVLKGEADALNLDGGYIYTAGKCGLVPVLAENRKSSKHSSLDCVLRPTEGYLAVAVVKKANEGLTWNSLKDKKSCHTAVDRTAGWNIPMGLIVNQTGSCAFDEFFSQSCAPGADPKSRLCALCAGDDQGLDKCVPNSKEKYYGYTGAFRCLAEDVGDVAFVKNDTVWENTNGESTADWAKNLNREDFRLLCLDGTRKPVTEAQSCHLAVAPNHAVVSRSDRAAHVKQVLLHQQALFGKNGKNCPDKFCLFKSETKNLLFNDNTECLAKLGGRPTYEEYLGTEYVTAIANLKKCSTSPLLEACAFLTR
modifications: bovine lactoferrin C-lobe peptide

Tests used:
[1] = system: HA and NA surface antigens of Solomon (H1N1) and Wisconsin (H3N2) subunit vaccines; format: binding, Influenza A virus
[2] = system: SW X-179A 1089/09 inactivated subunits, vaccine H1N1; format: cell-based, Influenza A virus
[3] = system: A/Roma-ISS/2/08 (Brisbane-like) (oseltamivir-sensitive) H1N1; format: cell-based, Influenza A virus
[4] = system: A/Turkey/Italy/2676/99 H7N1; format: cell-based, Influenza A virus
[5] = system: A/Wisconsin (67/05) inactivated subunits, vaccine H3N2; format: cell-based, Influenza A virus
[6] = system: all tested virus strains (Influenza A H1N1, H3N2, H5N1, H7N1)
[7] = system: A/Parma/5/06 (Wisconsin-like) H3N2; format: cell-based, Influenza A virus
[8] = system: A/Solomon (3/06) inactivated subunits, vaccine H1N1; format: cell-based, Influenza A virus
[9] = system: Influenza virus A/RomaISS/2/08; format: binding
A/PR/8/34 H1N1 = format: cell-based, Influenza A virus
[10] = system: Influenza A/H1N1 (A/Roma-ISS/2/08 and A/Parma/24/09) and A/H3N2 (A/Parma/05/06); format: cell-based, Influenza A virus
[11] = system: Avian 29/05/06 inactivated vaccine H5N1; format: cell-based, Influenza A virus; details: Avian 29/05/06 H5N1 inactivated vaccine

Row | Molecule | bLf binding to viral envelope proteins (in words) [1] | HI titre [2] | HI titre [3] | HI titre [4] | HI titre [5] | substance-induced agglutination or erythrocyte lysis ([6]; turkey red blood cells, in the hemagglutination assays) | HI titre [7] | HI titre [8] | virus binding to bLf ([9]; pH 4) | virus binding to bLf ([9]; pH 5) | virus binding to bLf ([9]; pH 6) | HI titre (A/PR/8/34 H1N1) | effect on virus replication / infection (in words) [10] | HI titre [11] | inhibition of viral hemagglutination (in words) [6]
1 | B1 | binds to a viral protein of apparent molecular mass of 28 kDa | 46.5 fM | 6 nM | 93.1 fM | 0.3 pM | Neither bLf-induced agglutination nor visual evidence of erythrocyte lysis was observed | 3 nM | 5 pM | 47.2+/−1.4% | 52.9+/−9.7% | 34.1+/−4.1% | 3 nM | markedly inhibited | 2.9 pM | 
2 | B2 |  |  |  |  |  |  |  |  |  |  |  |  | highly inhibited |  | marked inhibition of viral hemagglutination
